Where two headings read alike, the source gives them in different places.
Assays:
[1] = molecular target: T1, rhesus macaque CD8 on expanded primary T cells (rhesus macaque); test: flow cytometry, Rhesus Expanded T cells Donor 9, gated on live CD8 T cells (via CD3+CD4-)
T1 construct: also called CD4- CD8+ rhesus T cells
Description: (§1) To obtain the results shown in FIG. 8A and FIG. 8B, 5×10⁴ expanded primary T cells (human, cynomolgus macaque or rhesus monkey) were thawed and transferred to a V bottom 96-well culture plate (Corning). Cells were washed twice with Cell Staining buffer (#420201, Biolegend). Each anti-CD8α antibody was diluted in four-fold antibody titration series from 60 μg/mL to 0.057 ng/mL into Cell Staining buffer. Cells were stained with each diluted antibody solution for 30 minutes on ice. Cells were then washed three times with Cell Staining buffer and primary antibody binding was detected by staining with anti-human Fc BV421 conjugate antibody (#410704, Biolegend) at 1:200 dilution for 30 minutes on ice. […] Flow cytometry data was analyzed by Flowjo 10 (Becton, Dickinson & Company) to measure the geometric median fluorescence intensity (gMFI) of the on-cell binding from each antibody. The gMFI values were normalized with the gMFI measured in the sample stained with only the secondary detection antibody and plotted against the concentration of the added antibodies. The binding curves were constructed using Graphpad Prism software, and EC₅₀ values were determined by non-linear curve fitting.

[2] = molecular target: T2, cynomolgus macaque CD8 on expanded primary T cells (cynomolgus macaque); test: flow cytometry, Cyno Expanded T cells Donor 9, gated on CD4- T cells, anti-human Fc BV421
T2 construct: also called CD4- CD8+ cynomolgus macaque T cells
Description: (§2) Binding was measured by fluorescence from the BV421 fluorophore-conjugated anti-human Fc secondary antibody that recognize the binders. The gMFI was normalized to the gMFI of the secondary antibody in the absence of the anti-CD8α binders.
as §1, with “Cells were stained with each diluted antibody solution for 30 minutes on ice.” left out

[3] = molecular target: T3, human CD8 on cells (CD8-overexpressing HEK293T cells, SupT1, HPB-ALL, human T cells, transfected HEK293 of … (human, UniProt P01732 22-235)); test: flow cytometry on CD8-overexpressing HEK293T cells, non-linear fit of normalized gMFI
T3 construct: whole, on cells; also called cell surface CD8
Description: To obtain the results shown in FIG. 3A, that determined EC₅₀ values for antigen-specific binding, CD8-overexpressing HEK293T cells were dissociated in Versine solution (PBS buffer at pH 7.4 supplemented with 0.5 mM EDTA), and 2×10⁵ total cells were transferred to a V-bottom 96 well culture plate (Corning). Cells were washed twice with Cell Staining buffer (#420201, Biolegend). Each anti-CD8α antibody with human IgG1 isotype and Fc-silencing mutations L234A, L235A and P329A was diluted in four-fold antibody titration series from 100 μg/mL to 6.1 ng/ml into Cell Staining buffer. eFluor 780 Fixable Viability dye (eBioscience) was also included during antibody solutions at a 1:4000 dilution. Cells were stained with each diluted antibody solution for 30 minutes on ice. Cells were then washed three times with Cell Staining buffer and primary antibody binding was detected by staining with anti-human Fc BV421 conjugate antibody (#410704, Biolegend) at 1:100 dilution for 30 minutes on ice. After staining with the secondary detection antibody, cells were washed three times with Cell Staining buffer, fixed in FluoroFix buffer (Biolegend) and kept at 4° C. in the dark until analysis. Flow cytometry analysis on each sample was performed on an Agilent NovoCyte flow cytometer. Flow cytometry data was analyzed by Flowjo 10 (Becton, Dickinson & Company) to measure the geometric median fluorescence intensity (gMFI) of the on-cell binding from each antibody. The gMFI values were normalized with the gMFI measured in the sample stained with only the secondary detection antibody and plotted against the concentration of the added antibodies. The binding curves were constructed using the Graphpad Prism software, and EC₅₀ values were determined by non-linear curve fitting.

[4] = molecular target: T4, human CD8αα homodimer, recombinant protein (Acro Biosystems) (human, UniProt P01732 22-182); test: BLI binding kinetic analysis, whole antibody, sample kept at pH 7.2, 4C (unstressed)
T4 construct: also called CD8αα antigen; biotinylated CD8α recombinant protein (CDA-H82E3)

[5] = molecular target: T3, human CD8 on cells (CD8-overexpressing …); test: flow cytometry, Human Expanded T cells Donor 5, gated on CD4- T cells, anti-human Fc BV421
Description: as §2
as §1, with “Cells were stained with each diluted antibody solution for 30 minutes on ice.” left out

[6] = molecular target: T1, rhesus macaque CD8 on expanded primary …; test: flow cytometry, Rhesus Expanded T cells Donor 9, gated on live CD8 T cells (via CD3+CD4-); remark: listed apart in the source
Description: as §1

[7] = molecular target: T3, human CD8 on cells (CD8-overexpressing …); test: flow cytometry, Human Expanded T cells Donor 6, gated on CD4- T cells, anti-human Fc BV421
Description: as §2
as §1, with “Cells were stained with each diluted antibody solution for 30 minutes on ice.” left out

[8] = molecular target: T4, human CD8αα homodimer, recombinant …; test: BLI steady state analysis, whole antibody, sample kept at pH 7.2, 4C (unstressed)
Description: To assess affinity of whole antibodies, steady state analysis was used as the bivalent nature of both whole antibody and CD8α complicates kinetic analysis. 50 nM CD8α-His (that is, CD8α with a C-terminal oligohistidine tag; Acro) was immobilized on Ni-NTA sensor probes. Binding was analyzed with a three-fold antibody dilutions series: 60 nM, 20 nM, 6.67 nM, 2.22 nM, 0.74 nM, and 0.25 nM. The antigen-loaded sensors were incubated in the diluted solutions to capture the whole IgG antibody for 300 s to record the association phase. Sensors were incubated in the kinetic buffer for 900 s to record the dissociation phase. The spin speed was 1000 rpm for all steps except the antigen loading step which was 400 rpm to control density of the antigen. The temperature of the performed assays was at 30° C. during the association and dissociation phases. The sensor data were baseline subtracted and further analyzed in GatorOne software (version 2.10) to determine the equilibrium dissociation constants (KD) of the antibodies by fitting the signals of the steady states to the 1:1 binding model.

T4 sequence (P01732 22-182 limits assumed): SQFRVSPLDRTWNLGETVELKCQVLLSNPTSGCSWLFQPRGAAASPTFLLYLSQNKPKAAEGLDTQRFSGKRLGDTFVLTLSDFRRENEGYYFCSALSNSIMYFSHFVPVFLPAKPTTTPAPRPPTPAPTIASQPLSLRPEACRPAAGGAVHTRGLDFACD
T3 sequence (P01732 22-235): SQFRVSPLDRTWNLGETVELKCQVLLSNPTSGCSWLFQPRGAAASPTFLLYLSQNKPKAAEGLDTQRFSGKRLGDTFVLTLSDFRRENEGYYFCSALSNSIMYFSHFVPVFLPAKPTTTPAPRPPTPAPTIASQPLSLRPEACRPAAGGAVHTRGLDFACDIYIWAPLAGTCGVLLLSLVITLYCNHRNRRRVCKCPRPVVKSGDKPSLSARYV

B1: CBD1033 whole antibody, human IgG1 with Fc-silencing mutations L234A, L235A and P329A (CBD1033-hIgG1-LALAPA) (antibody, V domains shown)
VH: QVQLVQSGAEVKKPGASVKVSCKASRYTFTDYNLHWVRQAPGQGLEWMGFIYPYNGGTGYAQKFQGRVTMTVDTSTSTAYMELSSLRSEDTAVYYCARDHRYNEGVSFDYWGQGTTVTVSS
VL: DIQLTQSPSSLSASVGDRATITCRASESVDGFGNSFMNWYQQKPGKAPKLLIYLASNLESGVPSRFSGSGSGTDFTLTISSVQPEDFATYYCQQNNEDPYTFGQGTKLEIKR
notes: On tLNPs the antibody was SATA-modified or AJICAP-thiolated (CBD1033.29) and conjugated to the LNP; also called CBD1033.3; CBD1033 IgG1
Q: With B1 as the binder, how does the EC50 [1] read?
A: The EC50 was 0.993 nM.

Q: What about the “EC50 (read off the curve)” value [2] of the same binder?
A: Its value is about 0.2 µg/mL.

Q: And the EC50 [3]?
A: Its EC50 is 2.78 nM.

Q: What about the Kd [4] of the same binder?
A: Its Kd is 1.66 nM.

Q: What about the koff [4] of the same binder?
A: The koff was 0.00308 s⁻¹.

Q: What about the kon [4] of the same binder?
A: The kon was 1.85e+06 M⁻¹ s⁻¹.

Q: And the “EC50 (read off the curve)” value [5]?
A: Its value is about 0.1 µg/mL.

Q: What about the EC50 [6] of the same binder?
A: The EC50 was 0.145 µg/mL.

Q: And the “EC50 (read off the curve)” value [7]?
A: The value was about 0.1 µg/mL.

Q: And the Kd [8]?
A: Its Kd is 1.45 nM.

B2: CBD1017ch whole antibody (chimeric CT8 antibody) (antibody, V domains shown)
VH: EVQLQQSGPELVKPGASVKISCKASRYTFTDYNLHWVKLSHEKSLEWIGFIYPYNGGTGYNQKFKNKAKLTVDYSSSTAYMELRSLTSVDAAVYYCARDHRYNEGVSFDYWGQGTTLTVSS
VL: NIVLTQSPASLAVSLGQRATISCRASESVDGFGNSFMNWYQQKPGQSPKLLIYLASNLESGVPARFSGSGSRTDFTLTIDPVEADDAATYYCQQNNEDPYTFGGGTKLEIK
notes: Chimeric antibody comprising the variable regions of the donor antibody CT8; detected with anti-human Fc
Q: How did the EC50 [1] turn out when B2 was run?
A: The EC50 was 0.308 nM.

Q: What about the “EC50 (read off the curve)” value [2] of the same binder?
A: The value was about 0.06 µg/mL.

Q: What about the EC50 [3] of the same binder?
A: The EC50 was 2.75 nM.

Q: What about the Kd [4] of the same binder?
A: The Kd was 0.43 nM.

Q: What about the koff [4] of the same binder?
A: The koff was 0.000655 s⁻¹.

Q: And the kon [4]?
A: Its kon is 1.53e+06 M⁻¹ s⁻¹.

Q: And the “EC50 (read off the curve)” value [5]?
A: Its value is about 0.05 µg/mL.

Q: And the EC50 [6]?
A: Its EC50 is 0.045 µg/mL.

Q: And the “EC50 (read off the curve)” value [7]?
A: Its value is about 0.05 µg/mL.

Q: What about the Kd [8] of the same binder?
A: Its Kd is 0.36 nM.
